# Laboratory results taken from PMC10380307, “Enzymatic Characterization of the Isocitrate Dehydrogenase with Dual Coenzyme Specificity from the Marine Bacterium Umbonibacter marinipuiceus” (International Journal of Molecular Sciences, 2023).
# Where a chain is given by its changes, count along the chain named. Numbers in names are those of the source.
# B1: UmIDH (Umboniibacter marinipuniceus) (protein)
# chain: MTFQYILPPKSGEPIQHTQDNQIIVPDRPIIPYIEGDGIGIDITPVMLEVVDAAVAQAYKGKKSIAWMEVFCGEKAADIYEGDWFPPETLAALQKYSVAIKGPLTTPIGGGFRSLNVALRQELDLYVCQRPIQWFKGVPSVVRKPNAVKMVIFRENSEDIYAGIEWRAGSEEAIKVTRFLQEEMGVTSLRFTENCGLGVKPISEQGSKRLVRKAIEYAIAHDKPSVTMVHKGNIMKYTEGAFCEWGYEVACEEFGATHEADSPWLTIINPNTAAKIVIKDVIADAMMQEILMYPQDHSVIATMNLNGDYLSDALAAQVGGIGIAPGANIGDRIALFEPTHGTAPRLAGMDRVNPCSLILSAEMMLRHLGWTKAADLMVKGVKYTISDRTVTHDFHSMMEHAELLSTSEFGAAVIKNMRRR
# notes: full-length, codon-optimised synthetic gene in pET28b (NdeI/XhoI), 6xHis tag, E. coli Rosetta (DE3); Type I IDH; putative coenzyme residues R345, L346, V352
# B2: UmIDH (Umboniibacter marinipuniceus; L346Y/R345K) (protein)
# chain: B1 chain with R345K, L346Y
# notes: as for B1
# B3: UmIDH (Umboniibacter marinipuniceus; L346I/R345D/V352A) (protein)
# chain: B1 chain with R345D, L346I, V352A
# notes: as for B1
# Assays:
# [1] = substrate: NC(=O)c1ccc[n+]([C@@H]2O[C@H](COP(=O)(O)OP(=O)(O)OC[C@H]3O[C@@H](n4cnc5c(N)ncnc54)[C@H](O)[C@@H]3O)[C@@H](O)[C@H]2O)c1; experiment: purified protein; type: biochemical, Umboniibacter marinipuniceus; details: 1 mM DL-isocitrate, 50 mM Tris-HCl pH 8.5, 25 °C, apparent constant, varied: cofactor
# [2] = substrate: NC(=O)c1ccc[n+]([C@@H]2O[C@H](COP(=O)(O)OP(=O)(O)OC[C@H]3O[C@@H](n4cnc5c(N)ncnc54)[C@H](OP(=O)(O)O)[C@@H]3O)[C@@H](O)[C@H]2O)c1; experiment: purified protein; type: biochemical, Umboniibacter marinipuniceus; details: 1 mM DL-isocitrate, 50 mM Tris-HCl pH 8.5, 25 °C, apparent constant, varied: cofactor
protein,measurement,setting,value
B1,Km,[1]; Mn2+ (2 mM),1800.0 ± 64.4 µM
same,kcat,[1]; Mn2+ (2 mM),7.5 ± 0.3 s⁻¹
same,kcat/Km,[1]; Mn2+ (2 mM),4200 M⁻¹ s⁻¹
same,Km,[2]; Mn2+ (2 mM),1167.7 ± 113.0 µM
same,kcat,[2]; Mn2+ (2 mM),11.1 ± 0.4 s⁻¹
same,kcat/Km,[2]; Mn2+ (2 mM),9500 M⁻¹ s⁻¹
B2,Km,[2]; metal not stated for mutants,605.9 ± 38.2 µM
same,kcat,[2]; metal not stated for mutants,15.3 ± 0.2 s⁻¹
same,kcat/Km,[2]; metal not stated for mutants,25000 M⁻¹ s⁻¹
B3,Km,[1]; metal not stated for mutants,369.7 ± 11.84 µM
same,kcat,[1]; metal not stated for mutants,17.7 ± 0.9 s⁻¹
same,kcat/Km,[1]; metal not stated for mutants,48000 M⁻¹ s⁻¹
